# Measured values published in patent US20240018189A1 (PROTAGONIST THERAPEUTICS, published 2024).
# Starred links: 1 amine or outer side, 2 acyl side, 3 side chain; linkers in the order of their positions; H or OH if unused. Positions of bridges follow the written chain, without caps; N, C: chain ends. Non-standard residues stand in square brackets, D forms with d. Groups on a side chain read outwards from the residue. Chains are numbered I, II in the order given. No end group written: not given here. *: point of attachment. PEG12 = NCCOCCOCCOCCOCCOCCOCCOCCOCCOCCOCCOCCOCCC(=O)O; Phe(4-tBu) = CC(C)(C)c1ccc(C[C@H](N)C(=O)O)cc1; Phe(3,4-F2) = N[C@@H](Cc1ccc(F)c(F)c1)C(=O)O; Dip = N[C@H](C(=O)O)C(c1ccccc1)c1ccccc1; γGlu = O=C(O)[C@H](CCC(=O)[*:2])N[*:1]; Palmitoyl = CCCCCCCCCCCCCCCC(=O)*; 2Pal = N[C@@H](Cc1ccccn1)C(=O)O; β3hF = N[C@H](CC(=O)O)Cc1ccccc1; NMeL = CN[C@@H](CC(C)C)C(=O)O; Isovaleryl = CC(C)CC(=O)*; Dap = NC[C@H](N)C(=O)O; Npc = nipecotic acid; Ahx = NCCCCCC(=O)O; βAla = NCCC(=O)O; Sar = CNCC(=O)O
# B1: Compd. ID 42 (peptide)
# peptide: DTHXPCIKXKKC
# modifications: N-term isovaleric acid; 4 Dpa; 8 (D)Lys; 9 bhPhe; 10 Lys(1Peg2_1Peg2_IsoGlu_C18_Diacid); 11 (D)Lys; C-term NH2
# B2: Compd. ID 43 (peptide)
# peptide: DTHXPCIKXKKC
# modifications: N-term isovaleric acid; 4 Dpa; 8 (D)Lys; 9 bhPhe; 10 Lys(1Peg2_1Peg2_Ahx_C18_Diacid); 11 (D)Lys; C-term NH2
# B3: Compd. ID 44 (peptide)
# peptide: DTHXPCIKXKKC
# modifications: N-term isovaleric acid; 4 Dpa; 8 (D)Lys; 9 bhPhe; 10 Lys(2Peg11′_KKK_Palm); 11 (D)Lys; C-term NH2
# B4: Compd. ID 45 (peptide)
# peptide: DTHXPCIKXKKC
# modifications: N-term isovaleric acid; 4 Dpa; 8 (D)Lys; 9 bhPhe; 10 Lys(2Peg11′_KKKGS_Palm); 11 (D)Lys; C-term NH2
# B5: Compd. ID 203 (peptide)
# peptide: DTHFPCIKXKKC
# modifications: not fully specified; N-term isovaleric acid; 4 MePhe; 8 (D)Lys; 9 bhPhe; 10 Lys(Ahx_Palm); 11 (D)Lys; C-term NH2
# B6: Compd. ID 5 (peptide)
# peptide: DTHXPCIKXKC
# modifications: N-term isovaleric acid; 4 Dpa; 8 Lys[Ahx-isoGlu-Palm]; 9 bhPhe; 10 (D)Lys; C-term NH2
# B7: Compd. ID 6 (peptide)
# peptide: DTHXPCIKXKC
# modifications: N-term isovaleric acid; 4 Dpa; 8 Lys[isoGlu-Palm]; 9 bhPhe; 10 (D)Lys; C-term NH2
# B8: Compd. ID 253 (peptide)
# peptide: DTHXPCIKXKKC
# modifications: N-term isovaleric acid; 4 Dpa; 8 (D)Lys(PEG12_OMe); 9 bhPhe; 10 Lys(1PEG2_1PEG2_IsoGlu_C18_Diacid); 11 (D)Lys(PEG12_OMe); C-term NH2
# B9: Seq. No. 317 (peptide)
# peptide 1: Isovaleryl-DTHFPCIK([γGlu-Palmitoyl])FEPR
# peptide 2: SKGCK-NH2
# modifications: disulfide I:6-II:4
# B10: Compd. ID 8 (peptide)
# peptide: DTHXPCIKXKC
# modifications: N-term isovaleric acid; 4 Dpa; 8 Lys[Ahx-Behenic_Acid]; 9 bhPhe; 10 (D)Lys; C-term NH2
# B11: Compd. ID 9 (peptide)
# peptide: DTHXPCIKXKC
# modifications: N-term isovaleric acid; 4 Dpa; 8 Lys[1Peg2-1Peg2-isoGlu-Behenic_Acid]; 9 bhPhe; 10 (D)Lys; C-term NH2
# B12: Seq. No. 338 (peptide)
# peptide: DTHXPCIKFKXC
# modifications: N-term isovaleric acid; 4 Dpa; 8 (D)Lys; 10 Lys(PEG12 Palm); 11 bhLys; C-term NH2
# B13: Seq. No. 344 (peptide)
# peptide: DTHXPCIKFKKX
# modifications: N-term isovaleric acid; 4 Dpa; 8 (D)Lys; 10 Lys(PEG12_Palm); 11 (D)Lys; 12 Pen; C-term NH2
# B14: Seq. No. 345 (peptide)
# peptide: DTHXPCIKXKKC
# modifications: N-term isovaleric acid; 4 Dpa; 8 (D)Lys; 9 Dpa; 10 Lys(PEG12_Palm); 11 (D)Lys; C-term NH2
# What was measured:
# [1] = target: T1, human ferroportin (SLC40A1) fused in frame with GFP (human) (UniProt Q9NP59); assay: cell-based or functional assay
# T1 sequence (looked up): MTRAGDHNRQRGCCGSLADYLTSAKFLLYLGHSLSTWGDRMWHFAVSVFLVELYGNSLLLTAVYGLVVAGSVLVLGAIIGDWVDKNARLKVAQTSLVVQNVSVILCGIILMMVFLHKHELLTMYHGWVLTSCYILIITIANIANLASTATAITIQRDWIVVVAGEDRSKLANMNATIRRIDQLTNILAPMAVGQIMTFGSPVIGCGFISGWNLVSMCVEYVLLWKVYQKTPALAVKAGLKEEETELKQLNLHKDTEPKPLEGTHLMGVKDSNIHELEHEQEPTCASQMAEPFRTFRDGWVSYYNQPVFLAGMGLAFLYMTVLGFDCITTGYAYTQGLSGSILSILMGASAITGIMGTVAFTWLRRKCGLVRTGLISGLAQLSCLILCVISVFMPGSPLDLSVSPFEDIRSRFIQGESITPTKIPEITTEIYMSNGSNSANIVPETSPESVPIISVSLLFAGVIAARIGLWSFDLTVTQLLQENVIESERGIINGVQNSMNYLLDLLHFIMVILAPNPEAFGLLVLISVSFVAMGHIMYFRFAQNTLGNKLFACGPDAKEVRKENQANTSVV
# [2] = target: T2, human ferroportin (SLC40A1) fused in frame with GFP (human, UniProt Q9NP59 1-571); assay: cell-based or functional assay
# T2 sequence (looked up): T1 sequence (looked up)
Binder,FPN EC50 [1],IC50: FPN internalisation [1],other results
B1,1.7 µM,–,–
B2,0.283 µM,–,–
B3,0.0379 µM,–,–
B4,0.0245 µM,–,–
Isovaleryl-DTH[Dip]PC[NMeL][dK][β3hF]K([Ahx-Palmitoyl])[dK]C-NH2 (disulfide 6-12 (inferred); not fully specified) [Compd. ID 201],0.0125 µM,–,–
B5,0.028 µM,–,–
DTHFPCIKXKKC (N-term isovaleric acid; 8 (D)Lys; 9 bhPhe; 10 Lys(Palm); C-term NH2) [Compd. ID 205],0.00423 µM,–,–
Isovaleryl-DTH[Dip]PCI[β3hF]K([Ahx-Palmitoyl])[dK]C-NH2 (disulfide 6-11 (inferred)) [Compd. ID 206],0.0108 µM,–,–
Isovaleryl-DTH[Dip][Npc]CI[dK][β3hF]K([Ahx-Palmitoyl])[dK]C-NH2 (disulfide 6-12 (inferred)) [Compd. ID 4],0.00635 µM,–,–
Isovaleryl-DTHFPCIK(Ac)FK([PEG12-Palmitoyl])PK(Ac)SK(Ac)[Sar]CK-NH2 (disulfide 6-16 (inferred)) [Compd. ID 214],0.00719 µM,–,–
Isovaleryl-DTHFPCLK([γGlu-Palmitoyl])FEPRSKGCK-NH2 (disulfide 6-16 (inferred)) [Compd. ID 216],0.0166 µM,–,–
Isovaleryl-DTHFPCIK([γGlu-Palmitoyl])FEPRSKGC (disulfide 6-16 (inferred)) [Compd. ID 218],0.0156 µM,–,–
Isovaleryl-DTHFPCIK([γGlu-Palmitoyl])FEPR [Compd. ID 219],0.0126 µM,–,–
B6,0.00075 µM,–,–
Isovaleryl-DTHFPC[NMeL]K([γGlu-Palmitoyl])FEPRSKGCK-NH2 (disulfide 6-16 (inferred)) [Compd. ID 244],0.00959 µM,–,–
B7,0.00616 µM,–,–
B8,> 3 µM,–,–
B9,–,0.0137 µM,–
Isovaleryl-DTH[Dip]PCIK([Ahx-Palmitoyl])[2Pal]C-NH2 (disulfide 6-10 (inferred)) [Seq. No. 320],–,0.00972 µM,–
DTHXPCIKXKC (N-term isovaleric acid; 4 Dpa; 8 Lys(Ahx_Palm); 9 2Pal; 10 (D)Lys; C-term NH2) [Seq. No. 321],–,0.0217 µM,–
Isovaleryl-DTH[Dip]PCI[βAla][β3hF][dK]C-NH2 (disulfide 6-11 (inferred)) [Seq. No. 323],–,0.0106 µM,–

Binder,FPN EC50 [1],IC50: FPN internalisation [1],other results
Isovaleryl-DTH[Dip]PCI[β3hF][dK]C-NH2 (disulfide 6-10 (inferred)) [Seq. No. 324],–,0.0233 µM,–
DTHXPCIKXKC (N-term isovaleric acid; 4 Dpa; 8 (D)Lys(Ac); 9 bhPhe; 10 Lys(Ac); C-term NH2) [Seq. No. 325],–,0.0378 µM,–
B10,0.55 µM,–,–
DTHXPCIKXKC (N-term isovaleric acid; 4 Dpa; 8 (D)Lys; 9 bhPhe; 10 Lys(Ac); C-term NH2) [Seq. No. 326],–,0.0957 µM,–
DTHXPCIKXKKC (N-term isovaleric acid; 4 Dpa; 8 (D)Lys; 9 bhPhe; 11 (D)Lys; C-term NH2) [Seq. No. 327],–,0.142 µM,–
Isovaleryl-DTH[Dip][Npc]CI[dK][Phe(4-tBu)][dK]CK([PEG12-Palmitoyl])-NH2 (disulfide 6-11 (inferred)) [Seq. No. 328],–,0.0165 µM,–
Isovaleryl-DTH[Dip]PCI[β3hF]K([PEG12-Palmitoyl])[dK]C-NH2 (disulfide 6-11 (inferred)) [Seq. No. 330],–,0.00693 µM,–
Isovaleryl-DTH[Dip]PCII[β3hF]K([PEG12-Palmitoyl])[dK]C-NH2 (disulfide 6-12 (inferred)) [Seq. No. 331],–,0.024 µM,–
Isovaleryl-DTH[Dip]PCI[dA][β3hF]K([PEG12-Palmitoyl])[dK]C-NH2 (disulfide 6-12 (inferred)) [Seq. No. 332],–,0.011 µM,–
Isovaleryl-DTH[Dip]PCI[βAla][β3hF]K([PEG12-Palmitoyl])[dK]C-NH2 (disulfide 6-12 (inferred)) [Seq. No. 333],–,0.00716 µM,–
Isovaleryl-DTHFPCI[dK]FK([PEG12-Palmitoyl])CK-NH2 (disulfide 6-11 (inferred)) [Seq. No. 334],–,0.032 µM,–
B11,0.0184 µM,–,–
B12,–,0.0204 µM,–
DTHXPCIKFKXC (N-term isovaleric acid; 4 Dpa; 8 (D)Lys; 10 Lys(PEG12 Palm); 11 Dab; C-term NH2) [Seq. No. 339],–,0.0228 µM,–
DTHXPCIKFKXC (N-term isovaleric acid; 4 Dpa; 8 (D)Lys; 10 Lys(PEG12_Palm); 11 Orn; C-term NH2) [Seq. No. 340],–,0.0269 µM,–
DTHXPCIKFKC (N-term isovaleric acid; 4 Dpa; 8 (D)Lys; 10 Lys(PEG12_Palm); C-term NH2) [Seq. No. 341],–,0.022 µM,–
B13,–,0.00775 µM,–
B14,–,0.023 µM,–
"Isovaleryl-DTH[Dip][Npc]CI[dK][Phe(3,4-F2)]K([PEG12-Palmitoyl])KC-NH2 (disulfide 6-12 (inferred)) [Seq. No. 346]",–,0.00616 µM,–
Isovaleryl-DTH[Dip]PCI[Dap]([Dap-Palmitoyl])[β3hF]C-NH2 (disulfide 6-10 (inferred)) [Compd. ID 1],–,–,FPN EC50 [2]: 0.00254 µM
